Target: T1, mouse IL-4R (mouse, UniProt P16382 26-233, limits assumed)
T1 sequence (looked up): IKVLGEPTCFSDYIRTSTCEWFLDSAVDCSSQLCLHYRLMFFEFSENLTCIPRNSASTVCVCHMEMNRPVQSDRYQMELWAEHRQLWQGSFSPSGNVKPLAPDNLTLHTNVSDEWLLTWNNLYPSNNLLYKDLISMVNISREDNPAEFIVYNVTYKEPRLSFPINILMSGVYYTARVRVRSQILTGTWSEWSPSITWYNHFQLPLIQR
Experiment: cell-based or functional assay

B1: REGN1103 (antibody, V domains shown)
VH: EVQLQQSGPELVKPGASVRMSCKASGYTFTDYNIHWVKQSHGKSLEWIGYIYPNNGDNGYNQKFRGKATLTVDKSSSTAYMELRSLTSDDSAVYYCARGRLRYFDVWGTGTTVTVSS
VL: NIVLTQSPASLAVSLGQRATISCRASESVDNYGHSFMHWYQQKPGQPPKLLIYLASNLESGVPARFSGSGSRTDFTLTLDPVEADDAATYYCQQYNEDPPTFGSGTKLEIK
IC50 of inhibition of IL-4-dependent proliferation of cell lines: 1900 pM
IC50 of inhibition of IL-13-dependent proliferation of cell lines: 11 pM
